Measured values from patent US20240002528A1 (University of Texas, published 2024).

T1: full-length human cystinosin-LKG with a C-terminal Flag tag (human, UniProt O60931-2 23-400, limits assumed)
T1 construct: Expressed in HEK-293S GnTI- cells and purified in DDM then digitonin; It was reconstituted in amphipols for immunisation; also called recombinant human Cystinosin; wild-type (WT) human Cystinosin; not shown: C-terminal Flag tag
T1 sequence (looked up): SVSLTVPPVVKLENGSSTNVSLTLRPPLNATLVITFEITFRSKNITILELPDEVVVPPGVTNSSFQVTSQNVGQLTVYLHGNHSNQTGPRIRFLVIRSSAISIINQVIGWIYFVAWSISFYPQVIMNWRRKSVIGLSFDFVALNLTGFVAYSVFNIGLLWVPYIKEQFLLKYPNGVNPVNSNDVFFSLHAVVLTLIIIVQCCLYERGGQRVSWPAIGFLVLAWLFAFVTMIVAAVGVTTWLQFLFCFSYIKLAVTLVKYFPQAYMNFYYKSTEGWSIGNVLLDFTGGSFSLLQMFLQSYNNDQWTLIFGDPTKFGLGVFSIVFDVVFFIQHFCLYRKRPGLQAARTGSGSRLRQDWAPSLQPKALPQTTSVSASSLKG


What was measured:
[1] = target: T1, full-length human cystinosin-LKG with a …; assay: size-exclusion chromatography (gel filtration) of Cystinosin incubated with Fab3H5 at a 1:1.5 molar ratio, with a polyacrylamide gel of the peak fraction; the sheet is marked pH7.0
Method: To assemble Cystinosin-Fab^3H5 complex, purified Cystinosin was incubated with Fab^3H5 at a 1:1.5 molar ratio at 4° C. for 30 minutes. The mixture was then purified by SEC using the aforementioned buffer (FIG. 1A). Peak fractions were collected and concentrated to […]. The isolated complex was then used for functional and structural studies. In particular the complex was used in Cryo-EM studies.

[2] = target: T1, full-length human cystinosin-LKG with a …; assay: ELISA and immunoprecipitation screen of hybridoma supernatants; ELISA and immunoprecipitation screen of hybridoma clone (folded cystinosin)

Binder | binding result [1] | binding result [2]
Fab3H5 (Fab fragment of IgG-3H5 generated by papain cleavage) (Fab, V domains shown, The reaction was stopped with iodoacetamide) VH: EVMLVESGGGLVKPGGSLKLSCAASGFTFSNYAMSWVRQTPEKRLEWVAAISGNEGTYTYYPDSVRGRFTISRDNARNNLYLQISSLRSEDTALYYCARYGLVGALDFWGQGAS VL: DIQMNQSPSTLSASLGDTITITCRASQNIDVWLNWYQQKPGDIPKLLIYEASNLHTGVPSRFSGSGSGTDFTLAISSLQPEDIATYYCLQGQDYPFTFGSGTK | binds | –
IgG-3H5, a mouse monoclonal anti-human Cystinosin antibody (antibody, V domains shown, also called 3H5 antibody; monoclonal antibody 3H5) VH: EVMLVESGGGLVKPGGSLKLSCAASGFTFSNYAMSWVRQTPEKRLEWVAAISGNEGTYTYYPDSVRGRFTISRDNARNNLYLQISSLRSEDTALYYCARYGLVGALDFWGQGAS VL: DIQMNQSPSTLSASLGDTITITCRASQNIDVWLNWYQQKPGDIPKLLIYEASNLHTGVPSRFSGSGSGTDFTLAISSLQPEDIATYYCLQGQDYPFTFGSGTK | – | binds
